In patent publication US20150133630A1 (UNIVERSITY OF TOKYO, published 2015):
Bridge positions count the residues as written; N and C are the ends. Square brackets hold non-standard residues; d marks the D form. Tyr(3-NO2) = N[C@@H](Cc1ccc(O)c([N+](=O)[O-])c1)C(=O)O; Arg(NO2) = N=C(NCCC[C@H](N)C(=O)O)N[N+](=O)[O-]

How the values were obtained:
[1] = biological target: T1, human soluble FcRn (human, UniProt P55899 24-297; P61769 21-119, limits assumed, chemically biotinated with NHS-biotin in the mRNA display assays; amine-coupled to the sensor chip in the Biacore assay); test: SPR, Biacore T100, FcRn amine-coupled to chip, peptide as analyte, phosphate buffer pH 7.4
T1 construct: also called neonatal Fc receptor
T1 sequence (P55899 24-297 limits assumed, chain 1 of 2): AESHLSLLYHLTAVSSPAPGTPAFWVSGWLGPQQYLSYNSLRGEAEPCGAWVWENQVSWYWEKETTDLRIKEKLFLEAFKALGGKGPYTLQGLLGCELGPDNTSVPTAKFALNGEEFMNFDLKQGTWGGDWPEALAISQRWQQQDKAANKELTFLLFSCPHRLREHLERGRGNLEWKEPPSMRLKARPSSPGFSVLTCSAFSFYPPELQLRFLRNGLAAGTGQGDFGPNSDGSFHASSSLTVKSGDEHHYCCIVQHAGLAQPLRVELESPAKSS
T1 sequence (P61769 21-119 limits assumed, chain 2 of 2): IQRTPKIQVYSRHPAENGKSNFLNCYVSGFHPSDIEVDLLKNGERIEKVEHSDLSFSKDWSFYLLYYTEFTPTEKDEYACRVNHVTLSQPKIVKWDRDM
Experimental: (§1) In order to find whether a peptide alone interacts with FcRn in a pH dependent manner, the peptide 2G01D not having SGSGS on the C-terminal side of 8D-01 and amidated at the C-terminal was synthesized on a solid phase and a dissociation constant Kd binding constant was measured using Biacore T100 (GE Healthcare). FcRn was immobilized onto a sensor chip by an amine coupling method. The following is the peptide 2G01D:
(§2) On the other hand, a solid-phase synthesized peptide 2G01D was added as an analyte to a phosphate buffer having a pH 6.0 or 7.4 and a dissociation constant was measured.

[2] = biological target: T1, human soluble FcRn; test: SPR, Biacore T100, FcRn amine-coupled to chip, peptide as analyte, phosphate buffer pH 6.0
Experimental: as §1, §2

[3] = biological target: T1, human soluble FcRn; test: SPR, Biacore T100, KD at pH 7.4 against KD at pH 6.0
Experimental: as §1, §2

B1: peptide 2G01D (peptide)
peptide: {CH2CO}-[dNty]F[Tyr(3-NO2)]LYN[Arg(NO2)]GDPL[Tyr(3-NO2)]LCG-NH2
modifications: thioether N-14; not fully specified
notes: also called solid-phase synthesized peptide 2G01D
Kd [1]: 293 nM | koff [1]: 0.00955 s⁻¹ | kon [1]: 32600 M⁻¹ s⁻¹ | Kd [2]: 4.26 nM | koff [2]: 0.00394 s⁻¹ | kon [2]: 925000 M⁻¹ s⁻¹ | fold change in dissociation constant between pH 7.4 and pH 6.0 [3]: ~70 times
